Laboratory results reported in patent US20250051455A1 (Hoffmann-La Roche, published 2025).
Residue numbers refer to the chain shown, from its start.

B1: HLA-G-0090 (antibody, V domains shown)
VH: QVQLQQSGPGLLKPSQTLSLTCAISGDSVSSNRAAWNWIRQSPSRGLEWLGRTYYRSKWYNDYAVSVQGRITLIPDTSKNQFSLRLNSVTPEDTAVYYCASVRAVAPFDYWGQGVLVTVSS
VL: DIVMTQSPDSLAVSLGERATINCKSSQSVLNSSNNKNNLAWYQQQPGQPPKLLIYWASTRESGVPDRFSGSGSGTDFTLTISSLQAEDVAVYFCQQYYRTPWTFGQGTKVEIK
notes: Human antibody from humanized OmniRat (OMT) rats
B2: HLA-G-0039 (antibody, V domains shown)
VH: EVQLLESGGGLVQPGGSLRLSCAASGFTFSSYAMNWVRQAPGKGLEWVSVISGSGVSTYYADSVKGRFTISRDNSRNTLSLQMNSLRAEDTAVYYCAKDGSYNYGYGDYFDYWGQGTLVTVSS
VL: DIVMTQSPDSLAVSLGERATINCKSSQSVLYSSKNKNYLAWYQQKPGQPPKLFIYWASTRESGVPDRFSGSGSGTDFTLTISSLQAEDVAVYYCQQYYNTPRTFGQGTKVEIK
notes: as for B1
B3: HLA-G-0041 (antibody, V domains shown)
VH: B2 VH with S31T, A33G, N35S, S54G, R76K, S80Y, S85R
VL: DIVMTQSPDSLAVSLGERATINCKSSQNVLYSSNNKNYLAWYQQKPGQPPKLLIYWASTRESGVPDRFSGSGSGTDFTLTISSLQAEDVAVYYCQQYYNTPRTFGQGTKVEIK
notes: as for B1
B4: HLA-G-0031 (antibody, V domains shown)
VH: QVKLMQSGAALVKPGTSVKMSCNASGYTFTDYWVSWVKQSHGKRLEWVGEISPNSGASNFDENFKDKATLTVDKSTSTAYMELSRLTSEDSAIYYCTRSSHGSFRWFAYWGQGTLVTVSS
VL: AIVLNQSPSSIVASQGEKVTITCRASSSVSSNHLHWYQQKPGAFPKFVIYSTSQRASGIPSRFSGSGSGTSYSFTISRVEAEDVATYYCQQGSSNPYTFGAGTKLELK
notes: Rat monoclonal antibody obtained from CD rats

target: T1, modified human HLA-G β2M MHC class I complex (HLA-G specific amino acids replaced by HLA-A consensus amino … (human)); experiment: ELISA, biotinylated degrafted HLA-G on streptavidin plate
T1 construct: Counter antigen: single-chain fusion of peptide, beta-2 microglobulin and HLA-G in which 14 HLA-G unique surface positions were mutated to an HLA-A consensus; also called degrafted HLA-G; HLA-G-0007
Protocol: Streptavidin coated plates (Nunc, MicroCoat #11974998001) were coated with 25 μl/well biotinylated human degrafted HLA-G at a concentration of 250 ng/ml and incubated at 4° C. overnight. After washing (3×90 μl/well with PBST-buffer) 25 μl anti-HLA-G samples (1:3 dilution in OSEP buffer) or rat serum (1:600 dilution in OSEP) were added and incubated 1 h at RT. After washing (3×90 μl/well with PBST-buffer) 25 μl/well of a mixture of goat-anti-rat IgG1-POD (Bethyl #A110-106P), goat-anti-rat IgG2a-POD (Bethyl #A110-109P) and goat-anti-rat IgG2b-POD (Bethyl #A110-111P) 1:10000 in OSEP was added and incubated at RT for 1 h on shaker. After washing (6×90 μl/well with PBST-buffer) 25 μl/well TMB substrate (Roche, 11835033001) was added and incubated until OD 2-3. Measurement took place on a Tecan Safire 2 instrument at 370/492 nm.
(§1) The above table summarizes the binding of different rat anti-human HLA-G monoclonal antibodies, derived from wt protein IMS both of wt as well as OMT rats. Shown are the relative EC50 values [ng/ml] and maximal OD of the respective binding to rec. wt monomeric HLA-G protein or the socalled gegrafted HLA-G (HLA-A consensus sequence on HLA-G backbone) protein as assessed by ELISA. The ELISA was set up by coating the biotinylated wt HLA-G or consensus antigen to strepdavidin plates. After incubation and washing steps, the respective antibodies were bound in a concentration range from 10-0 μg in 1:2 dilution steps. Detection of bound antibodies was carried out by anti-Fc-antibody-POD conjugates. EC50 values were determined from the resulting binding curves at the antibody concentrations generating the half-maximal signal.

| Max. OD [OD] | Binder |
| --- | --- |
| 0.2 | B1 |
| 0.13 | B2 |
| 0.15 | B3 |
| 0.13 | B4 |

target: T2, recombinant soluble human HLA-G β2M MHC class I complex, trimer (human); experiment: ELISA, HLA-G trimer coated at random on plate
T2 construct: Non-biotinylated; also called HLA-G Trimer; trimeric HLA-G
Protocol: as §1, with “IMS.” for “IMS both of wt as well as OMT rats.”, “[ng/ml]” for “[ng/ml] and maximal OD”, “monomeric, dimeric and trimeric” for “monomeric”, “proteins” for “protein or the socalled gegrafted HLA-G (HLA-A consensus sequence on HLA-G backbone) protein”, “HLA-G” for “HLA-G or consensus”, “signal. In case of the non-biotinylated HLA-G dimer and trimer antigens, immobilization was carried out by random coating on assay plates.” for “signal.”

| EC50 [nM] | Binder |
| --- | --- |
| 5.29 | B2 |
| 4.87 | B3 |
| 1.86 | B4 |

target: T3, recombinant soluble human HLA-G β2M MHC class I complex, monomer (human); experiment: ELISA (EC50 rel), biotinylated wt HLA-G monomer on streptavidin plate
T3 construct: His tagged; biotinylated where coated on streptavidin plates, non-biotinylated in SPR; also called HLA-G-0003; wt HLA-G (monomer)
Protocol: Streptavidin coated plates (Nunc, MicroCoat #11974998001) were coated with 25 μl/well biotinylated human wt HLA-G at a concentration of 250 ng/ml and incubated at 4° C. overnight. After washing (3×90 μl/well with PBST-buffer) 25 μl anti-HLA-G samples (1:3 dilution in OSEP buffer) or reference antibody (G233, Thermo/Pierce #MA1-19449, 500 ng/ml) were added and incubated 1 h at RT. After washing (3×90 μl/well with PBST-buffer) 25 μl/well goat-anti-mouse H+L-POD (Biorad #170-6561, 1:2000 in OSEP) or donkey-anti-rabbit IgG POD (GE #NA9340V, 1:5000 in OSE) was added and incubated at RT for 1 h on shaker. For detection of rat IgGs a mixture of goat-anti-rat IgG1-POD (Bethyl #A110-106P), goat-anti-rat IgG2a-POD (Bethyl #A110-109P) and goat-anti-rat IgG2b-POD (Bethyl #A110-111P) 1:10000 in OSEP was added and incubated at RT for 1 h on shaker. After washing (6×90 μl/well with PBST-buffer) 25 μl/well TMB substrate (Roche, 11835033001) was added and incubated until OD 2-3. Measurement took place on a Tecan Safire 2 instrument at 370/492 nm.
as §1

| EC50 [ng/mL] | Binder |
| --- | --- |
| 10.4 | B1 |
| 7.35 | B2 |
| 8.6 | B3 |
| 7.19 | B4 |

target: T3, recombinant soluble human HLA-G β2M MHC …; experiment: blocking ELISA on biotinylated wt HLA-G; competitor ILT-4

| % inh. ILT4 (3 µg/ml antibody) [%] | Binder |
| --- | --- |
| 23.9 | B2 |
| 18.4 | B3 |
| 39.8 | B4 |
